Here are results for one molecule from paper doi:10.1101/663153 (bioRxiv, 2019).

This experiment addresses T1, CysLTR2-GFP10-1D4 L129Q (human, UniProt Q9NS75 1-346, L129Q).
T1 sequence (looked up): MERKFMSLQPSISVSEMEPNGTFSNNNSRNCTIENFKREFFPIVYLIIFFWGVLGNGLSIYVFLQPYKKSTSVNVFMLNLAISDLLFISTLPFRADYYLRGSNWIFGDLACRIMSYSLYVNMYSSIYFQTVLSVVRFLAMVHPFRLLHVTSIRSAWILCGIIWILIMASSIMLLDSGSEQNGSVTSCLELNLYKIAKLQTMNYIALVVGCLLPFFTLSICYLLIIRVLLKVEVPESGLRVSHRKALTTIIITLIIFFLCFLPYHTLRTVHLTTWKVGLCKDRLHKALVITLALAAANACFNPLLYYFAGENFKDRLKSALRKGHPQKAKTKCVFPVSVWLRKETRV
Kind of experiment: FRET or BRET. Background: In BRET a luciferase serves as donor, and the signal depends on an acceptor being close.

B1: β-Arrestin1-RLuc3 (natural protein, UniProt P49407 1-418, looked up)
chain: MGDKGTRVFKKASPNGKLTVYLGKRDFVDHIDLVDPVDGVVLVDPEYLKERRVYVTLTCAFRYGREDLDVLGLTFRKDLFVANVQSFPPAPEDKKPLTRLQERLIKKLGEHAYPFTFEIPPNLPCSVTLQPGPEDTGKACGVDYEVKAFCAENLEEKIHKRNSVRLVIRKVQYAPERPGPQPTAETTRQFLMSDKPLHLEASLDKEIYYHGEPISVNVHVTNNTNKTVKKIKISVRQYADICLFNTAQYKCPVAMEEADDTVAPSSTFCKVYTLTPFLANNREKRGLALDGKLKHEDTNLASSTLLREGANREILGIIVSYKVKVKLVVSRGGLLGDLASSDVAVELPFTLMHPKPKEEPPHREVPENETPVDTNLIELDTNDDDIVFEDFARQRLKGMKDDKEEEEDGTGSPQLNNR
As to B1, the “ligand-independent net BRET^2 ratio” value came to 0.00151 ± 0.0004.
